According to the RNAGym collection of RNA variant scans (doi:10.1073/pnas.2313332121):

B1: TPR t1 (parent)
chain: GACCAAUCUGCCCUCAGAGCUCGAGAACAUCUUCGGAUGCAGAGGAGGCAGGCUUCGGUGGCGCGAUAGCGCCAACGUCCUCAACCUCCAAUGCAUCCCACCACAUGAUGAUGCCUGAAGAGCCUUGGUUUUUUG

Variants of: B1
Assay: polymerase ribozyme fitness, log enrichment relative to wild type (log ratio); higher = more active; in vitro selection for triplet polymerase activity
In short: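 Each subunit of a heterodimeric triplet polymerase ribozyme was represented by a PCR-built, transcribed mutant library that underwent triplicate single-round in vitro selection with frozen incubation at −7 °C. Extended constructs were recovered by gel excision, streptavidin-bead capture and RT-PCR, and Illumina sequencing of input and output libraries kept genotypes with ≥10 input reads and ≥1 read per output. Fitness is the logarithm of genotype enrichment relative to wild-type enrichment, from inverse-variance-weighted replicate averages, with a logarithm base of 2.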

Variant	polymerase ribozyme fitness (log ratio)
GACCAAUCUGCCCUCAGAGCUCGAGAACAUCUUCGGAUGCAGAGGAGGCAGGCUUCGGUGGCCCGAUAGCGCCAACGUCCUCAACCUCCAAUGCAUCCCACAACAUGAUGAAGCCUGAAGAGCCUUGGUUUUUUG [G63C C102A U112A]	-1.64
GACCAAUCUGCCCUCAGAGCUCGAGAACAUCUUCGGAUGCAGAGGAGGCAGGCUUCGGUGGCCCGAUAGCGCCAACGACCUCAACCUCCAAUGCAUCCCACCACAUGAUGAUGCCUGAAGAGCCUUGGUUUUUUG [G63C U78A]	-0.719
GACCAAUCUGCCCUCAGAGCUCGAGAACAUCUUCGGAUGCAGAGGAGGCAGGCUUCGGUGGCCCGAUAGCGCCAACGUCCUCAACCUCCAAUGCAUCCCACCACAUGUUGAUGCCUGAAGUACCUUGGUUUUUUG [G63C A108U A121U G122A]	-7.45
GACCAAUCUGCCCUCAGAGCUCGAGAACAUCUUCGGAUGCAGAGGAGGCAGGCUUCGGUGGCCCGAUAGCGCCAACGUCCUCAACCUCCAAUGCAUCCCACCACAUGAUGAUGCCUGAAGAGCUUUGGUUUUUUG [G63C C124U]	0.611
GACCAAUCUGCCCUCAGAGCUCGAGAACAUCUUCGGAUGCAGAGGAGGCAGGCUUCGGUGGCCCGAUAGCGCCAACGUCCUCAACCUCCAAUGCAUCCCACCACAUGAUUAUGCCUGAAGAGUCUUGCUUUUUUG [G63C G110U C123U G128C]	-5.59
GACCAAUCUGCCCUCAGAGCUCGAGAACAUCUUCGGAUGCAGAGGAGGCAGGCUUCGGUGGCCCGAUAGCGCCAACGUCCUCAACCUCCAAUGCAUCCCACCACAUAAUGAUGCCUGAAGAGCCUUGGUUUUUUG [G63C G107A]	-4.87
GACCAAUCUGCCCUCAGAGCUCGAGAACAUCUUCGGAUGCAGAGGAGGCAGGCUUCGGUGGCACGAUAGCGCCAACGUCCUCAACCUCCAAUGCAUCCCACCACAUGAUGAUGCCUGAAGAGCCUUGGGUUUUUG [G63A U129G]	-0.825
GACCAAUCUGCCCUCAGAGCUCGAGAACAUCUUCGGAUGCAGAGGAGGCAGGCUUCGGUGGCCCGAUAGCGCCAACGUCCUCAACCUCCAAUGCAUCCCACCACAUGAUGAUGCCUGAAGAGCCUUUGUUUUUUG [G63C G127U]	-1.97
GACCAAUCUGCCCUCAGAGCUCGAGAACAUCUUCGGAUGCAGAGGAGGCAGGCUUCGGUGGCUCGAUAGCGCCAACGUCCUCAACCUCCAAUGCAUCCCACCACAUGAUGAUGCCUGAAGCGCCUUGGUUUUUUG [G63U A121C]	0.0306
GACCAAUCUGCCCUCAGAGCUCGAGAACAUCUUCGGAUGCAGAGGAGGCAGGCUUCGGUGGCUCGAUAGCGCCAACGUCCUCAACCUCCAAUGCAUCCCACCACAUGAUGAUGCCUGAAGUGCCUUGGUUUUUUG [G63U A121U]	0.749
GACCAAUCUGCCCUCAGAGCUCGAGAACAUCUUCGGAUGCAGAGGAGGCAGGCUUCGGUGGCACGAUAGCGCCAACGUCCUCAACCUCCAAUGCAUCCCACCACAUGAUGAUGCCCGAAGAGCCUUUGUUUUAUG [G63A U116C G127U U133A]	-5.28
GACCAAUCUGCCCUCAGAGCUCGAGAACAUCUUCGGAUGCAGAGGAGGCAGGCUUCGGUGGCCCGAUAGCGCCAAUGUCCUCAACCGCCAAUGCAUCCCACCACAUGAUGAUGCCAGAAAAGCCUUGGUUUUUUG [G63C C76U U87G U116A G120A]	-4.12
GACCAAUCUGCCCUCAGAGCUCGAGAACAUCUUCGGAUGCAGAGGAGGCAGGCUUCGGUGGCCCGAUAGCGCCAACGUCCUCAACCUCCAAUGCAUGCCACCACAUGAUGAUGCCUGAAGAGCCUUGGUUUUUUG [G63C C97G]	-4.59
GACCAAUCUGCCCUCAGAGCUCGAGAACAUCUUCGGAUGCAGAGGAGGCAGGCUUCGGUGGCUCGAUAGAGCCAACGUCCUCAACCUCCAAUGCAUCCCACCACAUGAUGAUGCCUGAAGAGCCUUGGUUUUUUG [G63U C70A]	-0.179
GACCAAUCUGCCCUCAGAGCUCGAGAACAUCUUCGGAUGCAGAGGAGGCAGGCUUCGGUGGCCCGAUAGCGCCAACGUCCUCAACCUCCAAUGCAUCCCACCACAUGAUGAUGCCUGAAGAGCCGUGGUUUUUUG [G63C U125G]	-2.2
GACCAAUCUGCCCUCAGAGCUCGAGAACAUCUUCGGAUGCAGAGGAGGCAGGCUUCGGUGGCUCGAUAGCGCCAACGUCCUCAACCUCCUAUGCAUCCCACCACAUGAUGAUCCCUGAAGAGCCUUGGUUUUUUG [G63U A90U G113C]	-3.41
GACCAAUCUGCCCUCAGAGCUCGAGAACAUCUUCGGAUGCAGAGGAGGCAGGCUUCGGUGGCUCGAUAGCGCCAACGUCCUCUACCUCCAAUGCAUCCCAGCACAUGAUGAUGCCUGAAGAGCCUUGGUUUUUUG [G63U A83U C101G]	-2.97
GACCAAUCUGCCCUCAGAGCUCGAGAACAUCUUCGGAUGCAGAGGAGGCAGGCUUCGGUGGCCCGAUAGCGCCAACGUCCUCAACCUCCAAUGCAUCCCACCACAUGAUGAUACCUGAAGAGCCUUGGUUUUUUG [G63C G113A]	-2.11
GACCAAUCUGCCCUCAGAGCUCGAGAACAUCUUCGGAUGCAGAGGAGGCAGGCUUCGGUGGCCCGAUAGCGCCAACGUCCUCAACCUCCAAUGCAUCCCAUCACAUGAUGAUGCCUGAAGAGCCUUUGUUUUUUG [G63C C101U G127U]	-1.08
GACCAAUCUGCCCUCAGAGCUCGAGAACAUCUUCGGAUGCAGAGGAGGCAGGCUUCGGUGGCCCGAUAGCGCCAACGUCCUCAACCUCCAAUGCAUCCCACCACAUGAUAAUGCCUGAAGAGCCUUGGUUUUUUG [G63C G110A]	-1.89
GACCAAUCUGCCCUCAGAGCUCGAGAACAUCUUCGGAUGCAGAGGAGGCAGGCUUCGGUGGCCCGAUAGCGCCAACGUCCUCAACCUCCAUUGCAUCCCACCACAUGAUGAUGACUGGAGAGCCUUGGUUUAUUG [G63C A91U C114A A118G U132A]	-4.5

Variant	polymerase ribozyme fitness (log ratio)
GACCAAUCUGCCCUCAGAGCUCGAGAACAUCUUCGGAUGCAGAGGAGGCAGGCUUCGGUGGCCCGAUAGCGCCAACGUCCUCAACCUCCGAUUCAUCCCACCACAUGAUGAUGCCUGGAGAGCCUUGGUUUUUUG [G63C A90G G93U A118G]	-1.31
GACCAAUCUGCCCUCAGAGCUCGAGAACAUCUUCGGAUGCAGAGGAGGCAGGCUUCGGUGGCCCGAUAGCGCCAACGUCCUCAACCUCUAAUGCAUCCCACUACAUGAUGCUGCUUGAAGAGCCUUGGUUUUUUG [G63C C89U C102U A111C C115U]	-6.78
GACCAAUCUGCCCUCAGAGCUCGAGAACAUCUUCGGAUGCAGAGGAGGCAGGCUUCGGUGGCCCGAUAGCGCCAACGUCCUCAACCUCCAAUGCAUCCCAUUACAUGAUGAUGCCUGAACAGCCUUGGUUUUUUG [G63C C101U C102U G120C]	-2.17
GACCAAUCUGCCCUCAGAGCUCGAGAACAUCUUCGGAUGCAGAGGAGGCAGGCUUCGGUGGCCCGAUAGCGCCAACGUCCUCAAGCUCCAAUGCAUCCCACCACAUGAUGAUGCCUGAAGAGCCUUGGUUUUUUG [G63C C85G]	-1.96
GACCAAUCUGCCCUCAGAGCUCGAGAACAUCUUCGGAUGCAGAGGAGGCAGGCUUCGGUGGCUCGAUAGCGCCAACGUCCUCAACCUCCAAUGCAUCCCACCACAUGAUGCUGCCUGAAGAGCCUUGGUUUUUUG [G63U A111C]	-1.67
GACCAAUCUGCCCUCAGAGCUCGAGAACAUCUUCGGAUGCAGAGGAGGCAGGCUUCGGUGGCACGAUAGCGCCAACGUCCUCAACCUCCAAUGCAUCCCACCACAUGAUGAGGCCUGAAGAGCCUUGGUUUUUUG [G63A U112G]	-1.1
GACCAAUCUGCCCUCAGAGCUCGAGAACAUCUUCGGAUGCAGAGGAGGCAGGCUUCGGUGGCCCGAUAGCGCCAACGUCCUCAACCUCCAAUGCAUCCCACCACAUGAUGAUGCCUGAAGAGCCUUGGUUUUUUG [G63C]	-0.722
GACCAAUCUGCCCUCAGAGCUCGAGAACAUCUUCGGAUGCAGAGGAGGCAGGCUUCGGUGGCUCGAUAGCGCCAACGUCCUCAACCUCCAAUGCAUCCCACCACAUGAUGAUGCCUGAAGAGCCUUGGUUUUUUG [G63U]	-1.18
GACCAAUCUGCCCUCAGAGCUCGAGAACAUCUUCGGAUGCAGAGGAGGCAGGCUUCGGUGGCCCGAUAGCGCCAACGUCCUCAACCUCCAAUGCAUCCCACCACAUGAUGAUGCCUGAAGAGCCUAGUUUUUAUG [G63C U126A G128U U133A]	-3.25
GACCAAUCUGCCCUCAGAGCUCGAGAACAUCUUCGGAUGCAGAGGAGGCAGGCUUCGGUGGCCCGAUAGCGCCAACGUCCUCAACCUCCAAUGCAUCCCACCACAUGAUGAUGCCUGAAGAACCUUGGUUUUUUG [G63C G122A]	-0.479
GACCAAUCUGCCCUCAGAGCUCGAGAACAUCUUCGGAUGCAGAGGAGGCAGGCUUCGGUGGCACGAUAGCGCCAACGUCCUCAACCUCCAAUGCAUCCCACCACAAGAUGAUGCCUGAAGAGCCUUGGUUUUGUG [G63A U106A U133G]	-1.47
GACCAAUCUGCCCUCAGAGCUCGAGAACAUCUUCGGAUGCAGAGGAGGCAGGCUUCGGUGGCUCGAUAGCGCCAACGUCCUCAACCUCCACGGCAUCCCACCACAUGAUGAUGCCUGAAGAGCCUUGGUUUUUUG [G63U A91C U92G]	-4.45
GACCAAUCUGCCCUCAGAGCUCGAGAACAUCUUCGGAUGCAGAGGAGGCAGGCUUCGGUGGCCCGAUAGCGCCAACGUCUUCAACCUCCAAUGCAUCCCACCACAUGAUAAUGCCUGAAGAGCCUUGGUUUUUUG [G63C C80U G110A]	-2.48
GACCAAUCUGCCCUCAGAGCUCGAGAACAUCUUCGGAUGCAGAGGAGGCAGGCUUCGGUGGCCCGAUAGCGCCAACGUCCUCAACCUCCAAUGCAUCCCACCACAUGAUGAUGCCUGAACAGCCUUGGUUAUUUG [G63C G120C U131A]	0.5
GACCAAUCUGCCCUCAGAGCUCGAGAACAUCUUCGGAUGCAGAGGAGGCAGGCUUCGGUGGCCCGAUAGCGCCAACGUCCUCAACCUCCAAUGCAUCCCACCACAUGAUGAUGCCUGAAGAGCCUUGGUAUUUUG [G63C U130A]	-0.551
GACCAAUCUGCCCUCAGAGCUCGAGAACAUCUUCGGAUGCAGAGGAGGCAGGCUUCGGUGGCACGAUAGCGCCAACGUCCUCAACCUCCAAUGCAUCCCACCACAUGAUGAAGGCUGAAGAUCCUUGGUUUUUUG [G63A U112A C114G G122U]	-1.75
GACCAAUCUGCCCUCAGAGCUCGAGAACAUCUUCGGAUGCAGAGGAGGCAGGCUUCGGUGGCUCGAUAGCGCCAACGUCCUCAACCUCCAAUGCAUCCCACCGCAUGAUGAUGCCUGAAGAGCCUUGGUUUUUUG [G63U A103G]	-5.82
GACCAAUCUGCCCUCAGAGCUCGAGAACAUCUUCGGAUGCAGAGGAGGCAGGCUUCGGUGGCCCGAUAGCGCCAACGUCCUCAACCUCCAAUGCAUCCCACCACAUGAUGAUGCCAGAAGAGCCUUGGUUUUUUG [G63C U116A]	-3.47
GACCAAUCUGCCCUCAGAGCUCGAGAACAUCUUCGGAUGCAGAGGAGGCAGGCUUCGGUGGCACGAUAGCGCCAACGUCCUCAACCUCCAAUGCAUCCCACCACAUGAUGAUGCCUGAAGAGCCUUGGUUUCUUG [G63A U132C]	-1.92
GACCAAUCUGCCCUCAGAGCUCGAGAACAUCUUCGGAUGCAGAGGAGGCAGGCUUCGGUGGCCCGAUAGCGCCAACGUCCUCAUCCUCCAAUGCAUCCCACCACAUGAUGAUGCCUAAAGAGCCUUGGUUUUUUG [G63C A84U G117A]	-2.46
GACCAAUCUGCCCUCAGAGCUCGAGAACAUCUUCGGAUGCAGAGGAGGCAGGCUUCGGUGGCCCGAUAGCGCCAACGUCCUCAACCUCCAAUGCAUCCCUCCACAUGAUAAUGCGUGAAGAGCCUUGGUUUUUUG [G63C A100U G110A C115G]	-6.05
